Test results as given in the supplement of paper PMC5998384.

System: HeLa Kyoto
Experiment: thermal stability score vs G1/S (z-score of summed log2 fold changes over temperatures); higher = more thermally stable than in G1/S
[1] = cell cycle stage: early G1 (4.5 h after nocodazole release)
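Further: synchronized HeLa Kyoto cells, proteins quantified by TMT10plex mass spectrometry, three biological replicates, mitosis taken 0.5 h after nocodazole release, G1/S directly after double thymidine block.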

Chain of MARK3 (chain, as listed by the source): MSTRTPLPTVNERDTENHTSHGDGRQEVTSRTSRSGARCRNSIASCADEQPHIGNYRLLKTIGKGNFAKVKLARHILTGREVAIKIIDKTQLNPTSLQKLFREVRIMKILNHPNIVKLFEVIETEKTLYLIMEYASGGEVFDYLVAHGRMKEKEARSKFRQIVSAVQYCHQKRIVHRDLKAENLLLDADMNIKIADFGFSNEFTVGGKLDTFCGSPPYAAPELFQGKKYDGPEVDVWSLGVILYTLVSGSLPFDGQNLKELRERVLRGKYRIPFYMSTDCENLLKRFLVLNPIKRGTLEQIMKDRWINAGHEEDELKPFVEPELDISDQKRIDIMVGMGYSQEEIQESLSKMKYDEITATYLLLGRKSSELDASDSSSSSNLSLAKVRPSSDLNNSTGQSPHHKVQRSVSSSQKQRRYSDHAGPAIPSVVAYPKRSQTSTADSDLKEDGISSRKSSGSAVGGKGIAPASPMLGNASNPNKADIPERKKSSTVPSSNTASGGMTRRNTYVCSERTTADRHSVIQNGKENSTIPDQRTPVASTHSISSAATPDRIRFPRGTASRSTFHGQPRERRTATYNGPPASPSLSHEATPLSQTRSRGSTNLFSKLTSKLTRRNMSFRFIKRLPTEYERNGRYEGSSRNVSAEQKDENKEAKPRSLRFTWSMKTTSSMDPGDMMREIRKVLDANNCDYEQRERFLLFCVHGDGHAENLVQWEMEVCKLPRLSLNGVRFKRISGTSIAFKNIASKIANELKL

Substance	thermal stability score [1]	thermal stability score (cell cycle stage: mitosis)
MGPEALSSLLLLLLVASGDADMKGHFDPAKCRYALGMQDRTIPDSDISASSSWSDSTAARHSRLESSDGDGAWCPAGSVFPKEEEYLQVDLQRLHLVALVGTQGRHAGGLGKEFSRSYRLRYSRDGRRWMGWKDRWGQEVISGNEDPEGVVLKDLGPPMVARLVRFYPRADRVMSVCLRVELYGCLWRDGLLSYTAPVGQTMYLSEAVYLNDSTYDGHTVGGLQYGGLGQLADGVVGLDDFRKSQELRVWPGYDYVGWSNHSFSSGYVEMEFEFDRLRAFQAMQVHCNNMHTLGARLPGGVECRFRRGPAMAWEGEPMRHNLGGNLGDPRARAVSVPLGGRVARFLQCRFLFAGPWLLFSEISFISDVVNNSSPALGGTFPPAPWWPPGPPPTNFSSLELEPRGQQPVAKAEGSPTAILIGCLVAIILLLLLIIALMLWRLHWRRLLSKAERRVLEEELTVHLSVPGDTILINNRPGPREPPPYQEPRPRGNPPHSAPCVPNGSALLLSNPAYRLLLATYARPPRGPGPPTPAWAKPTNTQAYSGDYMEPEKPGAPLLPPPPQNSVPHYAEADIVTLQGVTGGNTYAVPALPPGAVGDGPPRVDFPRSRLRFKEKLGEGQFGEVHLCEVDSPQDLVSLDFPLNVRKGHPLLVAVKILRPDATKNARNDFLKEVKIMSRLKDPNIIRLLGVCVQDDPLCMITDYMENGDLNQFLSAHQLEDKAAEGAPGDGQAAQGPTISYPMLLHVAAQIASGMRYLATLNFVHRDLATRNCLVGENFTIKIADFGMSRNLYAGDYYRVQGRAVLPIRWMAWECILMGKFTTASDVWAFGVTLWEVLMLCRAQPFGQLTDEQVIENAGEFFRDQGRQVYLSRPPACPQGLYELMLRCWSRESEQRPPFSQLHRFLAEDALNTV [DDR1]	0.0856	0.38
MEINTKLLISVTCISFFTFQLLFYFVSYWFSAKVSPGFNSLSFKKKIEWNSRVVSTCHSLVVGIFGLYIFLFDEATKADPLWGGPSLANVNIAIASGYLISDLSIIILYWKVIGDKFFIMHHCASLYAYYLVLKNGVLAYIGNFRLLAELSSPFVNQRWFFEALKYPKFSKAIVINGILMTVVFFIVRIASMLPHYGFMYSVYGTEPYIRLGVLIQLSWVISCVVLDVMNVMWMIKISKGCIKVISHIRQEKAKNSLQNGKLD [TMEM56]	0.000211	-0.867
MAAPLVLVLVVAVTVRAALFRSSLAEFISERVEVVSPLSSWKRVVEGLSLLDLGVSPYSGAVFHETPLIIYLFHFLIDYAELVFMITDALTAIALYFAIQDFNKVVFKKQKLLLELDQYAPDVAELIRTPMEMRYIPLKVALFYLLNPYTILSCVAKSTCAINNTLIAFFILTTIKGSAFLSAIFLALATYQSLYPLTLFVPGLLYLLQRQYIPVKMKSKAFWIFSWEYAMMYVGSLVVIICLSFFLLSSWDFIPAVYGFILSVPDLTPNIGLFWYFFAEMFEHFSLFFVCVFQINVFFYTIPLAIKLKEHPIFFMFIQIAVIAIFKSYPTVGDVALYMAFFPVWNHLYRFLRNIFVLTCIIIVCSLLFPVLWHLWIYAGSANSNFFYAITLTFNVGQILLISDYFYAFLRREYYLTHGLYLTAKDGTEAMLVLK [PIGU]	0.038	-0.34
MAVPGCNKDSVRAGCKKCGYPGHLTFECRNFLRVDPKRDIVLDVSSTSSEDSDEENEELNKLQALQEKRINEEEEKKKEKSKEKIKLKKKRKRSYSSSSTEEDTSKQKKQKYQKKEKKKEKKSKSKKGKHHKKEKKKRKKEKHSSTPNSSEFSRK [SREK1IP1]	-0.6	-4.29
MARK3	-0.371	0.161
MTGEKIRSLRRDHKPSKEEGDLLEPGDEEAAAALGGTFTRSRIGKGGKACHKIFSNHHHRLQLKAAPASSNPPGAPALPLHNSSVTANSQSPALLAGTNPVAVVADGGSCPAHYPVHECVFKGDVRRLSSLIRTHNIGQKDNHGNTPLHLAVMLGNKECAHLLLAHNAPVKVKNAQGWSPLAEAISYGDRQMITALLRKLKQQSRESVEEKRPRLLKALKELGDFYLELHWDFQSWVPLLSRILPSDACKIYKQGINIRLDTTLIDFTDMKCQRGDLSFIFNGDAAPSESFVVLDNEQKVYQRIHHEESEMETEEEVDILMSSDIYSATLSTKSISFTRAQTGWLFREDKTERVGNFLADFYLVNGLVLESRKRREHLSEEDILRNKAIMESLSKGGNIMEQNFEPIRRQSLTPPPQNTITWEEYISAENGKAPHLGRELVCKESKKTFKATIAMSQEFPLGIELLLNVLEVVAPFKHFNKLREFVQMKLPPGFPVKLDIPVFPTITATVTFQEFRYDEFDGSIFTIPDDYKEDPSRFPDL [ANKRD13C]	-0.894	-0.663
